{"source": "the supplement of paper PMC10724198", "note": "± gives the standard deviation of the averaged measurements.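 Note: PSI is a weighted mean of sequencing reads over stability bins, variants kept only with over 10 reads, mCherry proximal and sfGFP distal, peptide attached via GGGS linker.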"}
{"tested_on": "Saccharomyces cerevisiae", "assay": "protein stability index of tFT-peptide fusion (C-terminal peptide) (PSI (0-1 scale)); higher = more stable (slower turnover)", "conditions": "genetic background: wild type; temperature: 30 C"}
{"sequence": "GATPRTAGRRPG", "protein stability index": "0.688 ± 0.038"}
{"sequence": "HATFLPGLLTIS", "protein stability index": "0.566 ± 0.026"}
{"sequence": "AGIDYLSVGGSL", "protein stability index": "0.728 ± 0.074"}
{"sequence": "SPAPALFCPARF", "protein stability index": "0.739 ± 0.022"}
{"sequence": "HPPVFFSPCGIL", "protein stability index": "0.634 ± 0.033"}
{"sequence": "PPRYDSLFGALF", "protein stability index": "0.676 ± 0.066"}
{"sequence": "PNTNIRTHCQWI", "protein stability index": "0.709 ± 0.02"}
{"sequence": "LYSPSLRPPLLL", "protein stability index": "0.855 ± 0.18"}
{"sequence": "PGTNENPLSPGK", "protein stability index": "0.7302 ± 0.0041"}
{"sequence": "TSIDRLLIRYEK", "protein stability index": "0.649 ± 0.12"}
{"sequence": "RQLSSFSDRSGS", "protein stability index": "0.715 ± 0.022"}
{"sequence": "LVRCPLGVPGAS", "protein stability index": "0.7085 ± 0.0065"}
{"sequence": "RPVPPPLPSPPP", "protein stability index": "0.702 ± 0.016"}
{"sequence": "SGGGGGGDCVGA", "protein stability index": "0.687 ± 0.015"}
{"sequence": "YFCGRGSVLLVT", "protein stability index": "0.56 ± 0.014"}
{"sequence": "RKRKEKSLKAKL", "protein stability index": "0.784 ± 0.084"}
{"sequence": "VCLVHSPFDTLP", "protein stability index": "0.699 ± 0.037"}
{"sequence": "VVKEGGGCREGR", "protein stability index": "0.64 ± 0.028"}
{"sequence": "SPPSPAFTPAPF", "protein stability index": "0.669 ± 0.077"}
{"sequence": "FDRQQDLTGMEM", "protein stability index": "0.769 ± 0.078"}
{"sequence": "RPGWSRGREAVA", "protein stability index": "0.735 ± 0.14"}
{"sequence": "DLSPPLPPPAHP", "protein stability index": "0.674 ± 0.044"}
{"sequence": "AGAGEHCDGVVG", "protein stability index": "0.641 ± 0.0096"}
{"sequence": "RRLRWQNKIIGI", "protein stability index": "0.868 ± 0.13"}
{"sequence": "PDSASSLTPPPP", "protein stability index": "0.66 ± 0.085"}
{"sequence": "GIDKTNHKQEKN", "protein stability index": "0.691 ± 0.0085"}
{"sequence": "QSKANIVEEIWI", "protein stability index": "0.688 ± 0.02"}
{"sequence": "YCLLCSFVGPPA", "protein stability index": "0.731 ± 0.19"}
{"sequence": "SRKKDEGEYHRK", "protein stability index": "0.68 ± 0.036"}
{"sequence": "CSAAVVQSSGSE", "protein stability index": "0.67 ± 0.034"}
{"sequence": "PPPGRPDAMTPP", "protein stability index": "0.676 ± 0.022"}
{"sequence": "GLCACTSFLVSW", "protein stability index": "0.697 ± 0.028"}
{"sequence": "HWSMRVNRTEGG", "protein stability index": "0.663 ± 0.055"}
{"sequence": "ACSPPPLLPPPL", "protein stability index": "0.737 ± 0.016"}
{"sequence": "CPGLYVRAYGHC", "protein stability index": "0.613 ± 0.049"}
{"sequence": "NCFVTILLGMWK", "protein stability index": "0.513 ± 0.022"}
{"sequence": "KWETAAGSSDGP", "protein stability index": "0.6993 ± 0.0032"}
{"sequence": "PPPASSPPPSAS", "protein stability index": "0.626 ± 0.062"}
{"sequence": "REGKIVNNKNEN", "protein stability index": "0.687 ± 0.077"}
{"sequence": "HSYSPRSLLVDP", "protein stability index": "0.727 ± 0.039"}
{"sequence": "SSRELVDGVGIA", "protein stability index": "0.763 ± 0.068"}
{"sequence": "GGRCGEGLVREG", "protein stability index": "0.702 ± 0.021"}
{"sequence": "ATSPPGLLAQPA", "protein stability index": "0.663 ± 0.0017"}
{"sequence": "HEGPGTTEFLGL", "protein stability index": "0.717 ± 0.059"}
{"sequence": "LYQEPLRNACFC", "protein stability index": "0.683 ± 0.1"}
{"sequence": "KSASIGTTLRNL", "protein stability index": "0.699 ± 0.022"}
{"sequence": "ITTVRGALLARY", "protein stability index": "0.666 ± 0.068"}
{"sequence": "PTETRRIGHHEG", "protein stability index": "0.661 ± 0.043"}
{"sequence": "DLIKCPTNMVRL", "protein stability index": "0.646 ± 0.068"}
{"sequence": "VRRGGGHRWVVW", "protein stability index": "0.705 ± 0.016"}
{"sequence": "YGCVSPVAGFAN", "protein stability index": "0.7254 ± 0.0069"}
{"sequence": "GSLASRGVFVVV", "protein stability index": "0.614 ± 0.042"}
{"sequence": "GGGCGLFVFLSL", "protein stability index": "0.63 ± 0.058"}
{"sequence": "RVYYPSGVKCRL", "protein stability index": "0.671 ± 0.033"}
{"sequence": "FLSFECRFPFQW", "protein stability index": "0.795 ± 0.069"}
{"sequence": "SAVARVGDVIAV", "protein stability index": "0.613 ± 0.059"}
{"sequence": "RKKNEKKEDNKK", "protein stability index": "0.747 ± 0.12"}
{"sequence": "IGCSELSGLGGY", "protein stability index": "0.769 ± 0.12"}
{"sequence": "QSPPDDRPPPHP", "protein stability index": "0.676 ± 0.029"}
{"sequence": "WEVGVGRQDVEW", "protein stability index": "0.7448 ± 0.0065"}
{"sequence": "PLPPPPDSPPLP", "protein stability index": "0.694 ± 0.013"}
{"sequence": "KNPKKMKKVTTK", "protein stability index": "0.694 ± 0.0091"}
{"sequence": "LSLGSSATLTFQ", "protein stability index": "0.698 ± 0.03"}
{"sequence": "VPKRLLSFDQGG", "protein stability index": "0.6801 ± 0.0032"}
{"sequence": "INLRENETKQRN", "protein stability index": "0.673 ± 0.038"}
{"sequence": "YRKGWRREVGGG", "protein stability index": "0.699 ± 0.011"}
{"sequence": "NIIADTHARRRF", "protein stability index": "0.748 ± 0.11"}
{"sequence": "HQVSLVLGGYLL", "protein stability index": "0.702 ± 0.0099"}
{"sequence": "PIAPDPAPVGLD", "protein stability index": "0.721 ± 0.014"}
{"sequence": "EGAGRRYRCGWG", "protein stability index": "0.698 ± 0.049"}
{"sequence": "PPPSSSLAAPPT", "protein stability index": "0.677 ± 0.026"}
{"sequence": "LRLSCGDRFRVG", "protein stability index": "0.557 ± 0.019"}
{"sequence": "LPLPIPPFPCPP", "protein stability index": "0.686 ± 0.017"}
{"sequence": "EHIRPNMSSYAV", "protein stability index": "0.728 ± 0.072"}
{"sequence": "PPPPLDSFPFIT", "protein stability index": "0.701 ± 0.043"}
{"sequence": "PPSPSPLPHSSP", "protein stability index": "0.676 ± 0.058"}
{"sequence": "LYSTATLSLCSR", "protein stability index": "0.707 ± 0.12"}
{"sequence": "TLSPAPPPPLPP", "protein stability index": "0.636 ± 0.093"}
{"sequence": "ETGGQTELKVVH", "protein stability index": "0.683 ± 0.084"}
{"sequence": "GPPTKLTLNQQK", "protein stability index": "0.6286 ± 0.00082"}
{"sequence": "GGGGSRWAGPRC", "protein stability index": "0.636 ± 0.031"}
{"sequence": "PPRPPPSPPLPS", "protein stability index": "0.663 ± 0.054"}
{"sequence": "GESTNVYTTHWI", "protein stability index": "0.736 ± 0.011"}
{"sequence": "RDAPLGRRLRPV", "protein stability index": "0.678 ± 0.021"}
{"sequence": "GLGVMGVGCVGS", "protein stability index": "0.653 ± 0.054"}
{"sequence": "DQVDGLFTCSAR", "protein stability index": "0.739 ± 0.027"}
{"sequence": "AICSVRSGITLS", "protein stability index": "0.6529 ± 0.0019"}
{"sequence": "FPLLAPAVSPHT", "protein stability index": "0.662 ± 0.071"}
{"sequence": "IAGKAIKNMTRR", "protein stability index": "0.676 ± 0.052"}
{"sequence": "SFSFPFGCSSRF", "protein stability index": "0.7195 ± 0.0046"}
{"sequence": "ETEASKGSRNEE", "protein stability index": "0.627 ± 0.065"}
{"sequence": "ARVLVLMNGVCV", "protein stability index": "0.592 ± 0.032"}
{"sequence": "CLYVTFFLPCIL", "protein stability index": "0.491 ± 0.016"}
{"sequence": "PPSPPPPRPPSS", "protein stability index": "0.704 ± 0.055"}
{"sequence": "DGGFAAPDVIGA", "protein stability index": "0.682 ± 0.026"}
{"sequence": "EKIKNKDYIEKT", "protein stability index": "0.887 ± 0.094"}
{"sequence": "PRRPPPSPPVPP", "protein stability index": "0.532 ± 0.03"}
{"sequence": "GGGGRGLLDVGV", "protein stability index": "0.689 ± 0.031"}
{"sequence": "VMVTYCSEVQDR", "protein stability index": "0.693 ± 0.011"}
{"sequence": "AHGASGNRSHNQ", "protein stability index": "0.644 ± 0.037"}
{"sequence": "AHVYGCGGGGMT", "protein stability index": "0.734 ± 0.055"}
